Source: the supplement of paper PMC5998384

Assays:
[1] = tested on: HeLa Kyoto; assay: thermal stability score vs G1/S (z-score of summed log2 fold changes over temperatures); higher = more thermally stable than in G1/S
[2] = tested on: HeLa Kyoto; assay: solubility in G1/S (NP-40 vs SDS abundance) (log2 ratio); higher = more soluble; details: cell cycle stage: G1/S
[3] = tested on: HeLa Kyoto; assay: solubility change mitosis vs G1/S (difference of NP-40 vs SDS log2 ratios) (log2 ratio difference); higher = more soluble in mitosis
[4] = tested on: HeLa Kyoto; assay: melting temperature (median over replicates), in situ; higher = more thermally stable
[5] = cell cycle stage: early G1 (4.5 h after nocodazole release)
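Throughout, for melting temperature (median over replicates), in situ: HeLa Kyoto cells synchronized by double thymidine or nocodazole block, proteins quantified by TMT10plex mass spectrometry, three independent biological replicates.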
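Throughout, for solubility change mitosis vs G1/S (difference of NP-40 vs SDS log2 ratios): synchronized HeLa Kyoto cells (double thymidine block for G1/S, nocodazole release for mitosis), protein amounts in NP-40 versus SDS lysates quantified by mass spectrometry, three biological replicates.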
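Throughout, for solubility in G1/S (NP-40 vs SDS abundance): HeLa Kyoto cells arrested at G1/S by double thymidine block, proteins quantified by TMT10plex mass spectrometry in mild NP-40 versus SDS extracts, three biological replicates.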
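Throughout, for thermal stability score vs G1/S (z-score of summed log2 fold changes over temperatures): synchronized HeLa Kyoto cells, proteins quantified by TMT10plex mass spectrometry, three biological replicates, mitosis taken 0.5 h after nocodazole release, G1/S directly after double thymidine block.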

Sequence	thermal stability score [1, 5]	thermal stability score ([1]; cell cycle stage: mitosis)	solubility in G1/S (log2) [2]	solubility change mitosis (log2) [3]	melting temperature ([4]; cell cycle stage: G1/S) [°C]	melting temperature ([4]; cell cycle stage: mitosis) [°C]
MNEVSVIKEGWLHKRGEYIKTWRPRYFLLKSDGSFIGYKERPEAPDQTLPPLNNFSVAECQLMKTERPRPNTFVIRCLQWTTVIERTFHVDSPDEREEWMRAIQMVANSLKQRAPGEDPMDYKCGSPSDSSTTEEMEVAVSKARAKVTMNDFDYLKLLGKGTFGKVILVREKATGRYYAMKILRKEVIIAKDEVAHTVTESRVLQNTRHPFLTALKYAFQTHDRLCFVMEYANGGELFFHLSRERVFTEERARFYGAEIVSALEYLHSRDVVYRDIKLENLMLDKDGHIKITDFGLCKEGISDGATMKTFCGTPEYLAPEVLEDNDYGRAVDWWGLGVVMYEMMCGRLPFYNQDHERLFELILMEEIRFPRTLSPEAKSLLAGLLKKDPKQRLGGGPSDAKEVMEHRFFLSINWQDVVQKKLLPPFKPQVTSEVDTRYFDDEFTAQSITITPPDRYDSLGLLELDQRTHFPQFSYSASIRE [AKT2]	1.03	0.619	-0.0498	-0.26	50.5	50.2
MAKRNAEKELTDRNWDQEDEAEEVGTFSMASEEVLKNRAIKKAKRRNVGFESDTGGAFKGFKGLVVPSGGGRFSGFGSGAGGKPLEGLSNGNNITSAPPFASAKAAADPKVAFGSLAANGPTTLVDKVSNPKTNGDSQQPSSSGLASSKACVGNAYHKQLAALNCSVRDWIVKHVNTNPLCDLTPIFKDYEKYLANIEQQHGNSGRNSESESNKVAAETQSPSLFGSTKLQQESTFLFHGNKTEDTPDKKMEVASEKKTDPSSLGATSASFNFGKKVDSSVLGSLSSVPLTGFSFSPGNSSLFGKDTTQSKPVSSPFPTKPLEGQAEGDSGECKGGDEEENDEPPKVVVTEVKEEDAFYSKKCKLFYKKDNEFKEKGIGTLHLKPTANQKTQLLVRADTNLGNILLNVLIPPNMPCTRTGKNNVLIVCVPNPPIDEKNATMPVTMLIRVKTSEDADELHKILLEKKDA [NUP50]	-1.56	-1.75	0.204	0.0955	51.9	52.8
MAAPMLRWGCRGRRWAFARVDGGSCHRRGAPTGSTSNQIRGESSVAQQPLHTAQKTRKGEHKWAAVVGLEIHAQISSNSKLFSGSQVRFSAPPNSLVSFFDASLPGTLPVLNRRCVEAAVMTGLALNCHINKKSLFDRKHYFYADLPAGYQITQQRLPIAVNGSLIYGVCAGKKQSQVIPKTVRIKQIQLEQDSGKSLHDNLRSQTLIDLNRAGVGLLEVVLEPDMSCGEEAATAVRELQLILQALGTSQANMAEGQLRVDANISVHHPGEPLGVRTEVKNLNSIRFLAKAIDYEIQRQINELENGGEILNETRSFHHKLGCTMSMRDKEGKQDYRFMPEPNLPPLVLYDATSLPAGADPQQVINIDQIRETLPELPSVTREKLVQQYGMLLEHSFTLLNEVGLLEFFQNVIKETRAEPKKVTSWVLNTFLGYLKQQNLAVSESPVTPSALAELLDLLDSRTISSSAAKQVFEELWKREGKTPGQIVSEKQLELMQDQGALEQLCHSVMEAHPQVVMDVKNRNPRAINKLIGLVRKATQSRADPVMIKEILEKKLSL [GATB]	-0.148	0.829	0.473	-0.154	48.3	48.7
MAEVSIDQSKLPGVKEVCRDFAVLEDHTLAHSLQEQEIEHHLASNVQRNRLVQHDLQVAKQLQEEDLKAQAQLQKRYKDLEQQDCEIAQEIQEKLAIEAERRRIQEKKDEDIARLLQEKELQEEKKRKKHFPEFPATRAYADSYYYEDGGMKPRVMKEAVSTPSRMAHRDQEWYDAEIARKLQEEELLATQVDMRAAQVAQDEEIARLLMAEEKKAYKKAKEREKSSLDKRKQDPEWKPKTAKAANSKSKESDEPHHSKNERPARPPPPIMTDGEDADYTHFTNQQSSTRHFSKSESSHKGFHYKH [CCDC50]	-5.07	-1.65	0.334	0.182	57.7	55
MAEPTVCSFLTKVLCAHGGRMFLKDLRGHVELSEARLRDVLQRAGPERFLLQEVETQEGLGDAEAEAAAGAVGGGGTSAWRVVAVSSVRLCARYQRGECQACDQLHFCRRHMLGKCPNRDCWSTCTLSHDIHTPVNMQVLKSHGLFGLNENQLRILLLQNDPCLLPEVCLLYNKGEALYGYCNLKDKCNKFHVCKSFVKGECKLQTCKRSHQLIHAASLKLLQDQGLNIPSVVNFQIISTYKHMKLHKMLENTDNSSPSTEHSQGLEKQGVHAAGAAEAGPLASVPAQSAKKPCPVSCEK [ZC3HAV1L]	0.166	-0.0104	0.135	-0.0672	50.2	50.2
MGKSRTKRFKRPQFSPTGDCQAEAAAAANGTGGEEDDGPAAELLEKLQHPSAEVRECACAGLARLVQQRPALPGLARRDAVRRLGPLLLDPSLAVRETAAGALRNLSACGGFEVCDDMVTKDIMTPLVALLKECSAGLDSNEMSLQEKKDQNRNSIENIANETVNVLWNICECSSRAVSIFNKEGCLEIVLKYLSRFPTNVDLAISVAYCLQTVTEDNPELLKSFSATALNMLESALLSPVSSMESLLLKTLVAGTIWNLKDIIPCKSQAEIINALLKILSEVLGMDAGEMVIQMKEAETQRLKTAAEAEEILENTNGDDLIEDDEMEGISHKRRVRRKTFVSDLLPPTDKELRETIALLTAQQTALEIIVNMCCNEDPSDDEWEELSSSDESDAFMENSFSECGGQLFSPLCLSHEVHTALTNYLIPKKIFEKTAFPNSIAVDLCSRNPTWKPLIRKMNTIQCRALFCLQSLVSLLDVEHLGGAAALQTLAQHLSQLLFSQPDFAKHVDFLEAISSALRALLQTMASKNISQCMTPDQLMTLCKAGIHSSNVGVRVNVVSILGITGSVLAKEDGTLETLKNIGCFLLEVTTKDPSLVVAGEALDALFDVFADGKEAERASIQIKLLSALKEFQPVFKMKIRKEGRGNYSTDQLCVLDNVKMNLRRFIAYQETVEKRLTS [HEATR3]	1.72	3.45	0.0745	-0.138	48.7	48.8
MERFRLEKKLPGPDEEAVVDLGKTSSTVNTKFEKEELESHRAVYIGVHVPFSKESRRRHRHRGHKHHHRRRKDKESDKEDGRESPSYDTPSQRVQFILGTEDDDEEHIPHDLFTEMDELCYRDGEEYEWKETARWLKFEEDVEDGGDRWSKPYVATLSLHSLFELRSCILNGTVMLDMRASTLDEIADMVLDNMIASGQLDESIRENVREALLKRHHHQNEKRFTSRIPLVRSFADIGKKHSDPHLLERNGEGLSASRHSLRTGLSASNLSLRGESPLSLLLGHLLPSSRAGTPAGSRCTTPVPTPQNSPPSSPSISRLTSRSSQESQRQAPELLVSPASDDIPTVVIHPPEEDLEAALKGEEQKNEENVDLTPGILASPQSAPGNLDNSKSGEIKGNGSGGSRENSTVDFSKVDMNFMRKIPTGAEASNVLVGEVDFLERPIIAFVRLAPAVLLTGLTEVPVPTRFLFLLLGPAGKAPQYHEIGRSIATLMTDEIFHDVAYKAKDRNDLLSGIDEFLDQVTVLPPGEWDPSIRIEPPKSVPSQEKRKIPVFHNGSTPTLGETPKEAAHHAGPELQRTGRLFGGLILDIKRKAPFFLSDFKDALSLQCLASILFLYCACMSPVITFGGLLGEATEGRISAIESLFGASLTGIAYSLFAGQPLTILGSTGPVLVFEKILYKFCRDYQLSYLSLRTSIGLWTSFLCIVLVATDASSLVCYITRFTEEAFAALICIIFIYEALEKLFDLGETYAFNMHNNLDKLTSYSCVCTEPPNPSNETLAQWKKDNITAHNISWRNLTVSECKKLRGVFLGSACGHHGPYIPDVLFWCVILFFTTFFLSSFLKQFKTKRYFPTKVRSTISDFAVFLTIVIMVTIDYLVGVPSPKLHVPEKFEPTHPERGWIISPLGDNPWWTLLIAAIPALLCTILIFMDQQITAVIINRKEHKLKKGAGYHLDLLMVGVMLGVCSVMGLPWFVAATVLSISHVNSLKVESECSAPGEQPKFLGIREQRVTGLMIFILMGLSVFMTSVLKFIPMPVLYGVFLYMGVSSLKGIQLFDRIKLFGMPAKHQPDLIYLRYVPLWKVHIFTVIQLTCLVLLWVIKVSAAAVVFPMMVLALVFVRKLMDLCFTKRELSWLDDLMPESKKKKEDDKKKKEKEEAERMLQDDDDTVHLPFEGGSLLQIPVKALKYSPDKPVSVKISFEDEPRKKYVDAETSL [SLC4A7]	-0.753	1.69	-0.196	0.0133	54.4	53.6
